Laboratory results published in the supplement of paper PMC7877785.
± gives the uncertainty stated by the source.

Experiment: self-splicing fitness, log relative to wild type (ln ratio); higher = more splicing; Tetrahymena group I intron in knt gene, E. coli kanamycin selection, DiMSum; sequences stand for … in CUCUCU…GGAGGGAAAAGUUAUCAGGCAUGCACCUGGUAGCUAGUCUUUAAACCAAUAGAUUGCAUCGGUUUAAAAGGCAAGACCGUCAAAUUGCGGGAAAGGGGUCAACAGCCGUUCAGUACCAAGUCUCAGGGGAAACUUUGAGAUGGCCUUGCAAAGGGUAUGGUAAUAAGCUGACGGACAUGGUCCUAACCACGCAGCCAAGUCCUAAGUCAACAGAUCUUCUGUUGAUAUGGAUGCAGUUCACAGACUAAAUGUCGGUCGGGGAAGAUGUAUUCUUCUCAUAAGAUAUAGUCGGACCUCUCCUUAAUGGGAGCUAGCGGAUGAAGUGAUGCAACACUGGAGCCGCUGGGAACUAAUUUGUAUGCGAAAGUAUAUUGAUUAGUUUUGGAGUACUCGUGGUCG
In short: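 A randomised library covering all eight P1ex-region intron nucleotides was built with the intron in the knt kanamycin-resistance gene on pET-22b(+) and held in E. coli BL21(DE3). Cells were grown overnight at 37°C or 30°C on LB agar, with or without 25 μg/mL kanamycin, plus 100 μg/mL carbenicillin, 50 μM IPTG and 0.2% rhamnose, and pooled colonies were amplicon-sequenced on an Illumina HiSeq 2500. DiMSum fitness is the error-weighted combination of wild-type-normalised replicate fold changes, kanamycin versus none.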

Sequence | self-splicing fitness (ln) (30 °C) | self-splicing fitness (ln) (37 °C)
AUAUAGCAAUAUUACGGUGG | -3.4 ± 0.22 | -2.44 ± 0.25
CGUCAGCAAUAUUACGACAG | -0.576 ± 0.097 | 0.297 ± 0.13
GCGUAGCAAUAUUACGGUUA | -0.359 ± 0.1 | -0.119 ± 0.09
GAACAGCAAUAUUACGACGG | -3.4 ± 0.19 | -1.81 ± 0.18
UAUCAGCAAUAUUACGAGGG | -2.76 ± 0.18 | -1.61 ± 0.19
UAUUAGCAAUAUUACGAGAA | – | -2.92 ± 0.47
GACAAGCAAUAUUACGGCUG | -0.552 ± 0.082 | -0.635 ± 0.11
ACGUAGCAAUAUUACGCGGU | -3.63 ± 0.16 | -2.33 ± 0.17
AGCCAGCAAUAUUACGUGAC | -3.29 ± 0.17 | -2.05 ± 0.19
CCGCAGCAAUAUUACGUACC | -3.7 ± 0.28 | -3.08 ± 0.47
CGCAAGCAAUAUUACGUGCC | -0.772 ± 0.073 | -1.13 ± 0.11
CAGGAGCAAUAUUACGUUCA | -2.89 ± 0.12 | -3.54 ± 0.2
AAUAAGCAAUAUUACGUUUA | -2.05 ± 0.084 | -1.3 ± 0.096
AAAAAGCAAUAUUACGGUCA | -0.0389 ± 0.065 | 0.206 ± 0.082
UACUAGCAAUAUUACGAAUG | -0.956 ± 0.083 | 0.689 ± 0.12
UCAUAGCAAUAUUACGCGCA | 0.0597 ± 0.12 | 0.225 ± 0.12
GAGCAGCAAUAUUACGAGAU | -3.68 ± 0.18 | -2.64 ± 0.17
AUAGAGCAAUAUUACGACUU | -0.0326 ± 0.11 | 0.17 ± 0.11
CGAGAGCAAUAUUACGCGGA | -2.34 ± 0.37 | -1.37 ± 0.19
AUCAAGCAAUAUUACGUGAC | -2.04 ± 0.12 | -1.07 ± 0.11
AGUCAGCAAUAUUACGUCUA | -0.83 ± 0.072 | -0.792 ± 0.071
GACAAGCAAUAUUACGCCUG | -1.3 ± 0.093 | -0.0185 ± 0.1
CAGAAGCAAUAUUACGUCCG | 0.0183 ± 0.11 | -0.0354 ± 0.13
UUAUAGCAAUAUUACGGAUC | -3.02 ± 0.45 | –
AUCUAGCAAUAUUACGCCUA | -1.09 ± 0.16 | -0.389 ± 0.16

Sequence | self-splicing fitness (ln) (30 °C) | self-splicing fitness (ln) (37 °C)
ACUAAGCAAUAUUACGCCCA | -0.779 ± 0.11 | -0.482 ± 0.13
GGUAAGCAAUAUUACGUGAG | -1.03 ± 0.079 | 0.0462 ± 0.09
UGUAAGCAAUAUUACGGACA | -0.174 ± 0.16 | 0.153 ± 0.23
AGUUAGCAAUAUUACGCCGU | -1.15 ± 0.099 | -0.939 ± 0.14
CAAGAGCAAUAUUACGCAUA | -2.71 ± 0.31 | -2.3 ± 0.37
UGCGAGCAAUAUUACGUAGA | – | -0.382 ± 0.22
AACGAGCAAUAUUACGCGAC | -2.91 ± 0.21 | -2.03 ± 0.27
CUCAAGCAAUAUUACGCUGC | -3.68 ± 0.21 | -2.63 ± 0.19
CUCCAGCAAUAUUACGCGUU | -3.65 ± 0.17 | -2.01 ± 0.14
UACAAGCAAUAUUACGUCUG | -0.521 ± 0.071 | 0.299 ± 0.08
UAGAAGCAAUAUUACGUGGU | -3.52 ± 0.2 | -2.54 ± 0.18
UGCGAGCAAUAUUACGUACC | -2.77 ± 0.14 | -2.75 ± 0.25
CACGAGCAAUAUUACGUGCC | – | -3.4 ± 0.28
GCCAAGCAAUAUUACGAAAU | -3.24 ± 0.19 | -2.28 ± 0.18
UGAGAGCAAUAUUACGCACA | -2.08 ± 0.3 | -0.659 ± 0.35
GUCCAGCAAUAUUACGAAAU | -0.587 ± 0.1 | -0.0182 ± 0.12
GCACAGCAAUAUUACGCUUC | -2.21 ± 0.094 | -1.3 ± 0.098
GAUAAGCAAUAUUACGACAC | -0.403 ± 0.12 | 0.0901 ± 0.16
AACAAGCAAUAUUACGCGGA | -2.07 ± 0.099 | -0.961 ± 0.078
UCCCAGCAAUAUUACGUAUC | -3.32 ± 0.29 | -1.35 ± 0.2
UCUUAGCAAUAUUACGUGGG | -3.96 ± 0.23 | -2.21 ± 0.18
GGUAAGCAAUAUUACGGCAC | -0.762 ± 0.096 | -0.531 ± 0.15
AUGUAGCAAUAUUACGACUG | -0.943 ± 0.1 | -0.461 ± 0.1
AAAUAGCAAUAUUACGCACC | -1.34 ± 0.21 | -0.223 ± 0.23
